Consider four molecules from patent US20230332166A1, “FORMATE-INDUCIBLE PROMOTERS AND METHODS OF USE THEREOF” (Imperial College Innovations Ltd, priority 2020, published 2023).

The series deals with Y. lipolytica JMY2900. Nature of the series: qPCR of putative FDH gene transcription upon induction with sodium formate. It is filed as cell-based, Yarrowia lipolytica. Conditions: YNB with 0.5% sodium formate, 6 h, 28° C., vs absence of formate; qPCR normalised to actin. The protocol: FIG. 3: Transcription levels of the FDH genes of Yarrowia lipolytica W29 measured by qPCR, normalised to actin (ACT1) expression. Yarrowia lipolytica was grown in YNB supplemented with 1% glucose and 0.5% yeast extract at 15 h at 28° C., before being washed and transferred into YNB with 0.5% of sodium formate for induction and grown for 6 h.
The inducibility of the putative FDH genes with formate was then tested by qPCR. YALI0E14256g1_1 and the nine putative FDH with the highest % identity to YALI0E14256g1_1 were selected for testing. Y. lipolytica JMY2900 was cultured in YNB media supplemented with 1% glucose and 0.5% yeast extract for 15 h at 28° C. Cells were washed with distilled water and cultured in fresh liquid YNB media supplemented with 0.5% sodium formate at 28° C. with agitation at 160 rpm, before being harvested at 6 h post-inoculated. Cells were frozen in liquid nitrogen and stored at −80° C. RNA was subsequently extracted using the RNeasy Mini Kit (Qiagen), and 2 μg was treated with DNAse (Ambion; Life Science Technologies, Saint-Aubain, France). cDNA was synthesised using the Maxima First Strand cDNA synthesis kit (Thermo Fischer Scientific, Villebon sur Yvette, France). qPCR was then performed using the SYBRgreen mastermix (Thermo Fischer Scientific) with gene-specific primers designed using Primer3 software. Relative expression levels were calculated using ΔCT and ΔΔCT methods. Expression levels were normalised to actin.

B1: Yali0F15983: putative Y. lipolytica FDH gene; promoter region SEQ ID NO: 3 (1 Kb) and 19 (1.5 Kb) (nucleic acid, listed as Yarrowia lipolytica)
DNA: ATGAAGGTCCTTCTTATTCTCTACTCTGCCGGTTCTCACGCCGTTGACGAGCCCAAGCTACTCGGTTGCACTGAGAACGAGCTCGGTCTCCGAAAGTGGCTCGAGTCCCGGGGCCACACGCTTGTGACCACCTCTTCAAAGGAGGGAGCCGACTCTGTGCTCGACAAGGAGATTGTCGATGCCGACATTGTCATCACTACTCCCTTCCACCCCGGTTACATCACCCGAGAGCGAATCGCCAAGGCCAAGAACCTCAAAATTTGCATCACTGCCGGTGTTGGTTCGGACCACGTCGATCTTGATGCTGCCAACGAGCGAGATATTGCCGTTCTCGAGGTCACTGGCTCCAACGTGCAGTCTGTGGCTGAGCACGTTGTCATGACCATGCTGGTCCTGGTCCGAAACTTTGTGCCTGCCCACGAGCAGGTCATGGCTGGTGGCTGGGACGTTGCTGCTGTCGCCAAGGACTCCTACGACATTGAGGGAAAGGTCATTGGTACTGTGGGAGGTGGCCGAATTGGTCAGCGAGTCCTAAAGCGAGTTGCTCCCTTCAACCCTAAGGAGATGCTCTACTACGACTACCAGGGTCTGTCTGCTGAGACCGAGAAGGAGCTGAACTGCCGACGAGTCGAGAAGCTCGAGGATATGCTTGCCCAGTGTGATATCGTCACCATCAACTGTCCCCTCCACGAGTCCACCAAGGGTCTCTTCAACAAGGAGATGCTCTCTCACATGAAGAAAGGTGCCTGGCTTGTCAACACCGCTCGAGGAGCCATCTGTGTCAAGGAAGACGTTGCTGAGGCTCTCAAGAACGGCCAGCTGCGAGGCTACGGAGGTGACGTCTGGTTCCCCCAGCCTGCTCCCGCTGACCACCCCTGGAGATCCATGCGAAACAAGTACGGAGCTGGAAACGCCATGACCCCCCATATCTCCGGTACTTGCATCGATGCCCAGGTTCGGTACGCCCAGGGAACCAAGAACATTCTCGACATGTTCTTCTCCGGTAAGCAGGACTACCGACCCCAGGACATCATCTGCATCAACGGTCACTACGGAACCAAGGCCTACGGTGATGACAAGGAGCATGCTAAAAAGTAGGCTGGACGTCGAAATAAACACATTGTTCATCTCTGGGTAGCCCAATAGTAAATAGGTAAGCTGTGATCATTA
modifications: YALI0F15983g
Regarding B1, the “Fold increase on induction (fold change expression of putative FDH genes upon induction with sodium formate)” value is listed as 4.2 fold.

B2: Yali0E14256: Y. lipolytica FDH gene; promoter region SEQ ID NO: 8 (1 Kb) and 24 (1.5 Kb) (nucleic acid, listed as Yarrowia lipolytica)
DNA: ATGAAGATCCTTCTTGTTCTCTACGACGCCGGTTCCCACGCCAAGGATGAGCCTCGACTTCTCGGATGTACCGAGAACGAGCTTGGTCTCCGTGACTGGATCGAGTCCCAGGGACACACCTTGGTGACCACCTCCGACAAGGACGGTGAGAACTCAACCGTCGACAAGGAGATTGTGGATGCTGAGATTGTTATCACCACCCCCTTCCACCCCGCTTACATCACCAAGGAGCGAATTGACAAGGCCAAGAAGCTCAAGATCTGTATCACTGCCGGTGTTGGTTCCGACCATGTCGACCTTGATGCCGCCAACGCCCGAGACATTGCCGTCCTCGAGGTTACCGGATCTAACGTCCAGTCCGTCGCTGAGCACGTTGTCATGACCATGCTGGTTCTGGTCCGAAACTTCGTCCCCGCCCACGAGCAGATCATCGAGGGTGGCTGGAATGTCGCTGCTGTCGCCAAGGACTCTTACGACATTGAGGGTAAGGTCATTGGTACTGTCGGCGGTGGCCGAATTGGTCAGCGAGTCCTGAAGCGACTTGCACCCTTCAACCCCATGGAGCTCCTCTACTACGACTACCAGCCCATGCCCAAGGACGTGGAGAAGGAGATTGGCTGCCGACACGTCCCTGATCTTAAGGAGATGCTCTCTGTCTGTGACATTGTTACCATCAACTGTCCTCTCCACGACTCTACCAAGGGTATGTTCAACAAGGAACTCATCTCCCACATGAAGGATGGTGCTTGGCTCGTCAACACCGCCCGAGGTGCCATCTGTGTCACTGACGACATTGTTGAGGCCCTCAAGTCCGGTAAGATCCGAGGCTACGGTGGTGATGTCTGGAACCCCCAGCCTGCCCCCAAGGACCACCCCTGGAGATACATGCGAAACAAGTGGGGCGGTGGAAACGCCATGACCCCCCATATCTCCGGTACCTCCATCGATGCCCAGGGCCGATACTCCGAGGGTACCAAGAACATTCTCGAGGTCTACTTCTCCGGAAAGCAGAACTACCGACCTCAGGATGTCATCTGTATCAACGGCCACTACGGCACTAAGGCTTACGGTGACGACAAGGAGCACAAGGCCCACGTTTCCAAATAAGCACTTTAGCTGTTTAACTTATAAGCAATTGACTACTAGAATTTGC
modifications: YALI0E14256g
With B2, the “Fold increase on induction (fold change expression of putative FDH genes upon induction with sodium formate)” value is given as 23.9 fold.

B3: Yali0C14344: putative Y. lipolytica FDH gene; promoter region SEQ ID NO: 7 (1 Kb) and 23 (1.5 Kb) (nucleic acid, listed as Yarrowia lipolytica)
DNA: ATGAAGGTCCTTCTTGTTCTATACGATGCCGGCTCCCACGCCAAGGATGAGCCAAAGCTACTTGGATGCACCGAGAACGAGCTCGGAATCAGAGACTGGCTCGAGTCACAGGGCCACACTCTTGTCACCACCTCTTCCAAGGACGGTGCCCACTCTGTGCTTGACAAGGAGATTGTCGATGCCGATGTAGTCATCACCACCCCTTTCCACCCCGGCTACATCAACAAGGAGCGAATTGACAAGGCCAAAAAGCTCAAGATCTGCATCACCGCTGGTGTTGGCTCCGACCACGTCGATCTCGACGCAGCCAACGCCCGAGATATCTCTGTTCTTGAGGTTACTGGTTCTAATGTCCAGTCTGTCGCAGAGCACGTCGTTATGACCATGCTGGTGCTGGTCCGAAACTTTGTGCCCGCCCACGAGCAGATCATCGAGGGCGGCTGGAATGTGGCTGCTGTCGCCAAGGACTCGTACGATCTCGAGGGAAAGGTCATTGGCACCGTTGGAGGCGGTCGAATCGGCCAGCGAGTGCTCAAGCGATGCAAGCCCTTTGACCCCATGGAGATGCTCTACTACGACTACCAGGCTATGCCAGCTGATGTGGAGAAGGAGATTGGATGCCGACGAGTCGAGTCTCTGGAGGAGAAGCTCTCTCTCTGTGACGTTGTCACCATCAACTGTCCCCTTCACGCCTCCACCAAGGGTCTCTTCAACAAGGAGCTCATTTCCCACATGAAGGACGGCGCTTGGCTCGTCAACACTGCTCGAGGAGCCATCTGCGTCACCGAGGACATTGTCGACGCTCTCGAGTTGGGCAAGATCCGAGGATATGGCGGTGACGTCTGGTTCCCCCAGCCTGCCTCCAAGGACCACCCCTGGAGAACCATGCGAAATAAGTACGGCGGTGGAAACGCCATGACTCCCCACATCTCCGGCACTTCCATCGACGCCCAGGGCCGATACGCTGAGGGTACCAAGAAGATCCTCGAGGTCTTTTTCTCGGGAAAGCAGAATTACAGACCCCAGGATATCATCTGTATCAACGGCCATTATGGTACAAAGGCCTACGGTGACGACAAGGAGCACAAGGGGCACCAGCAGAAGTGA
modifications: YALI0C14344g
As to B3, the “Fold increase on induction (fold change expression of putative FDH genes upon induction with sodium formate)” value is 4.9 fold.

B4: Yali0F28765: putative Y. lipolytica FDH gene; its formate-inducible promoter region is SEQ ID NO: 11 (1 Kb) and 27 (1.5 Kb) (nucleic acid, listed as Yarrowia lipolytica)
DNA: ATGAAGGTCCTTCTCATTCTCTACGACGCCGGCTCCCACGCTGTTGATGAGCCCAAACTACTCGGATGCACCGAGAACGAGCTCGGTATCCGATCATGGCTCGAGTCCCAGGGCCATACTCTGGTAACCACCTCTTCCAAGGATGGCGATGACTCTGTCCTCGACAAGGAAATTGTCGACGCCGATGTCGTCATCACCACTCCCTTCCATCCCGGTTACATTACCCGAGAGCGAATTGCCAAGGCCAAGAACCTCAAAATATGTGTTACTGCAGGTGTTGGTTCCGACCATGTCGACCTTGATGCCGCCAACGAGCGAGACATTGCCGTTCTCGAGGTCACTGGTTCCAACGTCCAATCCGTCGCTGAGCACGTCGTCATGACCATGCTCGTCCTCGTCCGAAACTTTGTCCCCGCTCACGAGCAGGTCATGGCTGGTGGTTGGGATGTTGCTGCTGTCGCCAAGGACTCTTATGACATCGAGGGTAAGGTCATTGGTACCGTTGGTGGTGGCCGAATTGGTCAGCGAGTCCTCAAGCGAGTGGCTCCCTTCAACCCTAAGGAGATGCTCTACTACGACTACCAAGGACTTTCTGCTGAGACCGAGCAGGAGCTCAACTGTCGACGAGTCGAGAAGCTTGAAGATATGCTTGCCCAATGTGACATTGTCACCATTAACTGTCCTCTCCACGAGTCTACCAAGGGCCTCTTCAACAAGGAGATGCTCTCTCACATGAAGAAGGGTGCTTGGCTTGTCAACACCGCTCGAGGAGCTATCTGTGTCAAGGAGGATGTCGCCGAGGCTCTTGCCAACGGCCAGCTTCGAGGCTACGGTGGTGATGTGTGGTTCCCTCAGCCAGCCCCTGCCGACCACCCTTGGAGATCGATGCGAAACAAGTACGGCGCCGGTAACGCTATGACCCCACACATATCTGGTACTTCCATTGACGCCCAGGCCCGATACGCCGAGGGCACCAAGAACATTCTCGAGGTCTTCTTCTCCGGAAAGCAGGACTACCGACCCCAGGATATCATCTGTATCAACGGTCACTACGGTACCAAGGCTTACGGCGACGACAAGGAGCACGCCAAGAAATAGATAATATTCATTAACATACAAATACAGTCTACAGTCCTATATCGATTCGGTCGCTTCGAG
modifications: YALI0F28765g
Turning to B4, the “Fold increase on induction (fold change expression of putative FDH genes upon induction with sodium formate)” value is on record as 8.1 fold.
